Measurements: US20220306733A1 (ITEOS BELGUIM, published 2022)

Experiments:
[1] = molecular target: T1, mouse TIGIT on cells (Jurkat-mTIGIT) (mouse, UniProt P86176 29-249); assay: cell-based or functional assay
T1 sequence (looked up): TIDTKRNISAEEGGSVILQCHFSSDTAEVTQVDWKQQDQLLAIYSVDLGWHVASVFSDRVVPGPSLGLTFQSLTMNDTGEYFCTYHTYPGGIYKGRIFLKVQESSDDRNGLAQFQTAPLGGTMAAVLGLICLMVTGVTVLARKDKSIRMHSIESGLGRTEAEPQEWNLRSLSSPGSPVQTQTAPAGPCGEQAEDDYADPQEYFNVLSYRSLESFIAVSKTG

[2] = molecular target: T2, human TIGIT on cells (Jurkat-hTIGIT, human primary T cells) (human, UniProt Q495A1 22-244); assay: cell-based or functional assay
T2 sequence (looked up): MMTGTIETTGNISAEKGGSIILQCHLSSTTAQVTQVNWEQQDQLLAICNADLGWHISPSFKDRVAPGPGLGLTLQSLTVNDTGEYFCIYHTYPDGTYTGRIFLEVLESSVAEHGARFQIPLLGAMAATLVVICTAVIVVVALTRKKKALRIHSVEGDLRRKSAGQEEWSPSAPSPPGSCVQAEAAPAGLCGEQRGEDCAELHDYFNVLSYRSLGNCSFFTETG

[3] = molecular target: T2, human TIGIT on cells (Jurkat-hTIGIT, …); assay: flow cytometry on Jurkat-hTIGIT, 100 nM antibody, vs untransfected Jurkat
Experimental: (§1) Antibodies were incubated with the cells for 20 min at 4° C. in FACS buffer. […] Geometric mean fluorecence intensity was analysed using LSR BD Fortessa. Cell binding was recorded as the median florescence intensity of PE on the transfected line compared to the un-transfected line for each antibody (Table 3).

[4] = molecular target: T1, mouse TIGIT on cells (Jurkat-mTIGIT); assay: flow cytometry on Jurkat-mTIGIT, 100 nM antibody, vs untransfected Jurkat
Experimental: as §1

[5] = molecular target: T3, anti-idiotypic antibody clone 32869; assay: MSD electrochemiluminescence bridging ELISA: anti-idiotypic antibody 32869 coated on the plate, clone 31282 spiked in human serum, detection with Sulfo-TAG 32869
T3 construct: Human IgG1 from HEK293, selected from the HuCAL library
T3 sequence (VH, as listed by the source, chain 1 of 2): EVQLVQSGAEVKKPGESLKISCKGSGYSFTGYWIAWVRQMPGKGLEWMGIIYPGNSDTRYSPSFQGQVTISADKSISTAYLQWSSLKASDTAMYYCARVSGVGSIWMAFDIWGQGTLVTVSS
T3 sequence (VL, as listed by the source, chain 2 of 2): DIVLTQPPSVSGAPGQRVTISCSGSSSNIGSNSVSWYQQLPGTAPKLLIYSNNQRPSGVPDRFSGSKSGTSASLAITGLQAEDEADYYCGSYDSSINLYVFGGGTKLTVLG
From the text: The ELISA assay is based on the Meso Scale Discovery (MSD) Platform using electrochemiluminescence detection technology. […] A voltage is applied to the plate electrodes, causing the bound Sulfo-TAG to emit light via electrochemical stimulation.

[6] = molecular target: T2, human TIGIT on cells (Jurkat-hTIGIT, …); assay: flow cytometry on Jurkat-hTIGIT, no 31282

B1: anti-TIGIT antibody clone 26493 (antibody, V domains shown)
VH: EVQLVESGGGLVQPGRSLRLSCAASGFTFGDYAMHWVRQAPGKGLEWVSGITWNSGSIGYADSVKGRFTISRDNAKNSLYLQMNSLRAEDTALYYCAKPVPKSRGLDVWGQGTMVTVSS
VL: DIQLTQSPSSVSASVGDRVTITCRASQGISSWLAWYQQKPGKAPKLLIYGASSLQSGVPSRFSGSGSGTDFTLTISSLQPEDFATYYCQQAFYLPWTFGGGTKVEIK
notes: Naive parent clone, VH3-09; human IgG; Fab for 'Fab KD' columns; mouse IgG2a/IgG1 versions only used in vivo / ex vivo; also called surrogate anti-TIGIT antagonistic antibody
[1]
  IFNg production by mouse OT-1 CD8+ T cells co-cultured with OVA-pulsed PanO2 cells, 133 nM antibody: ~2 fold
[2]
  luciferase induction over isotype control (fold change), Jurkat-hTIGIT + CHO-TCR-CD155 bioassay, 133 nM antibody: 0.96 fold
[3]
  Cell binding FON (Fold Over Negative): 80 fold over negative
[4]
  Cell binding FON (Fold Over Negative): 463 fold over negative

B2: anti-TIGIT antibody clone 31282 (antibody, V domains shown)
VH: QVQLVQSGAEVKKPGASVKVSCKASGYTFTSYYMHWVRQAPGQGLEWMGVIGPSGASTSYAQKFQGRVTLTRDTSTSTVYMELSSLRSEDTAVYYCARDHSDYWSGIMEVWGQGTTVTVSS
VL: EIVLTQSPGTLSLSPGERATLSCRASQSVRSSYLAWYQQKPGQAPRLLIYGASSRATGIPDRFSGSGSGTDFTLTISRLEPEDFAVYYCQQYFSPPWTFGGGTKVEIK
[5]
  binding result: binds

B3: anti-TIGIT antibody clone 32959 (antibody, human IgG1, V domains shown)
VH: QVQLVQSGAEVKKPGSSVKVSCKASGGTFSSYLISWVRQAPGQGLEWMGGIYPIFATANYAQKFQGRVTITADESTSTAYMELSSLRSEDTAVYYCAREAQSYRVPFDIWGQGTMVTVSS
VL: EIVMTQSPATLSVSPGERATLSCRASQSVSSNLAWYQQKPGQAPRLLIYGASTRATGIPARFSGSGSGTEFTLTISSLQSEDFAVYYCQQYAIWPPFTFGGGTKVEIK
modifications: AF647 dye coupled to the antibody in Examples 24 and 36; the site is not stated and the letters do not carry it.
notes: human IgG1 from HEK cells
[6]
  Cell binding Jurkat Human TIGIT FON (Fold Over Negative): 588 fold over negative
